According to the Immune Epitope Database (IEDB):
One block for each sequence: values may come before it.

Assays:
HLA-B*51:01 = experiment: IEDB peptide-MHC binding, purified MHC/competitive/fluorescence; filed as Kd, often an IC50 or EC50 that approximates it; ≥ and ≤ were set here for values at or beyond the usual limits of such assays
HLA-B*15:01 [1] = experiment: as above; conditions: source organism: Salmonella enterica subsp. enterica serovar Typhimurium str. LT2
HLA-A*03:01 [2] = experiment: as above; conditions: source organism: Salmonella enterica subsp. enterica serovar Typhimurium str. LT2
HLA-A*69:01 [3] = experiment: as above
HLA-A*02:12 [4] = experiment: as above; conditions: source organism: Salmonella enterica subsp. enterica serovar Typhimurium str. LT2
HLA-A*26:01 = experiment: as above
HLA-A*23:01 [5] = experiment: as above; conditions: source organism: Salmonella enterica subsp. enterica serovar Typhimurium str. LT2
HLA-A*29:02 [6] = experiment: as above; conditions: source organism: Salmonella enterica subsp. enterica serovar Typhimurium str. LT2
HLA-B*18:01 [7] = experiment: as above
HLA-A*02:19 [8] = experiment: as above; conditions: source organism: Salmonella enterica subsp. enterica serovar Typhimurium str. LT2
HLA-B*27:03 = experiment: as above
HLA-B*57:01 [9] = experiment: as above
HLA-B*39:01 = experiment: as above
HLA-A*24:03 [10] = experiment: as above
HLA-B*15:17 = experiment: as above
HLA-B*46:01 [11] = experiment: as above
HLA-A*02:11 [12] = experiment: as above
HLA-A*02:01 [13] = experiment: as above
HLA-A*01:01 = experiment: IEDB peptide-MHC binding, purified MHC/direct/fluorescence; filed as Kd, often an IC50 or EC50 that approximates it; ≥ and ≤ were set here for values at or beyond the usual limits of such assays
HLA-A*02:12 [14] = experiment: as above
HLA-A*23:01 [15] = experiment: as above
HLA-A*02:03 = experiment: as above
HLA-A*02:16 = experiment: as above
HLA-A*02:19 [16] = experiment: as above
HLA-A*24:03 [17] = experiment: as above; conditions: source organism: Choclo virus
HLA-A*02:11 [18] = experiment: as above
HLA-A*68:02 = experiment: as above
HLA-A*03:01 [19] = experiment: as above
HLA-A*29:02 [20] = experiment: as above; conditions: source organism: Convict Creek 107 virus
HLA-B*15:01 [21] = experiment: as above; conditions: source organism: Yellow fever virus 17D
HLA-A*69:01 [22] = experiment: as above; conditions: source organism: Yellow fever virus 17D
HLA-B*15:09 = experiment: as above; conditions: source organism: Yellow fever virus
HLA-A*11:01 = experiment: as above; conditions: source organism: Yellow fever virus 17D
HLA-A*31:01 = experiment: as above; conditions: source organism: Yellow fever virus 17D
HLA-B*44:02 = experiment: as above; conditions: source organism: Yellow fever virus 17D
HLA-B*40:01 = experiment: as above; conditions: source organism: Yellow fever virus 17D
HLA-B*18:01 [23] = experiment: as above; conditions: source organism: Yellow fever virus 17D
HLA-B*58:01 = experiment: as above; conditions: source organism: Yellow fever virus 17D
HLA-B*57:01 [24] = experiment: as above; conditions: source organism: Yellow fever virus 17D
HLA-B*46:01 [25] = experiment: as above; conditions: source organism: Yellow fever virus 17D
HLA-B*48:01 = experiment: as above; conditions: source organism: Yellow fever virus 17D
HLA-B*27:05 = experiment: as above; conditions: source organism: Yellow fever virus 17D
HLA-A*02:01 [26] = experiment: as above; conditions: source organism: Yellow fever virus 17D
[27] = source organism: Salmonella enterica subsp. enterica serovar Typhimurium str. LT2
[28] = source organism: Bradyrhizobium diazoefficiens
[29] = source organism: Orthohantavirus sinnombreense
[30] = source organism: Convict Creek 107 virus
[31] = source organism: Yellow fever virus 17D

Sequence: ILNSDDEQA
Kd (HLA-B*51:01; [27]): ≥ 20 µM
Kd (HLA-B*15:01 [1]): ≥ 20 µM
Kd (HLA-A*03:01 [2]): ≥ 20 µM
Kd (HLA-A*69:01 [3]; [27]): ≥ 20 µM
Kd (HLA-A*02:12 [4]): ≥ 20 µM
Kd (HLA-A*26:01; [27]): ≥ 20 µM
Kd (HLA-A*23:01 [5]): ≥ 20 µM
Kd (HLA-A*29:02 [6]): 0.644 µM
Kd (HLA-B*18:01 [7]; [27]): ≥ 20 µM
Kd (HLA-A*02:19 [8]): 1.63 µM
Kd (HLA-B*27:03; [27]): ≥ 20 µM
Kd (HLA-B*57:01 [9]; [27]): ≥ 20 µM
Kd (HLA-B*39:01; [27]): ≥ 20 µM
Kd (HLA-A*24:03 [10]; [27]): ≥ 20 µM
Kd (HLA-B*15:17; [27]): ≥ 20 µM
Kd (HLA-B*46:01 [11]; [27]): ≥ 20 µM
Kd (HLA-A*02:11 [12]; [27]): 0.142 µM

Kd (HLA-A*02:01 [13]; [28]): 1.05 µM
Kd (HLA-A*02:11 [12]; [28]): 0.0704 µM
Sequence: VTPGPHAQI

Sequence: KACDLAMCY
Kd (HLA-B*51:01; source organism: Choclo virus): ≥ 20 µM
Kd (HLA-A*69:01 [3]; source organism: Choclo virus): ≥ 20 µM
Kd (HLA-A*26:01; source organism: Choclo virus): ≥ 20 µM
Kd (HLA-B*18:01 [7]; source organism: Choclo virus): ≥ 20 µM
Kd (HLA-B*27:03; source organism: Choclo virus): ≥ 20 µM
Kd (HLA-B*57:01 [9]; source organism: Choclo virus): ≥ 20 µM
Kd (HLA-B*39:01; source organism: Choclo virus): ≥ 20 µM
Kd (HLA-B*46:01 [11]; source organism: Choclo virus): ≥ 20 µM
Kd (HLA-A*02:01 [13]; source organism: Choclo virus): ≥ 20 µM
Kd (HLA-A*01:01; source organism: Pergamino virus): 3.28 µM
Kd (HLA-A*02:12 [14]; source organism: Choclo virus): ≥ 20 µM
Kd (HLA-A*23:01 [15]; source organism: Choclo virus): ≥ 20 µM
Kd (HLA-A*02:03; source organism: Choclo virus): ≥ 20 µM
Kd (HLA-A*02:16; source organism: Choclo virus): ≥ 20 µM
Kd (HLA-A*02:19 [16]; source organism: Choclo virus): ≥ 20 µM
Kd (HLA-A*24:03 [17]): ≥ 20 µM
Kd (HLA-A*02:11 [18]; source organism: Choclo virus): ≥ 20 µM
Kd (HLA-A*68:02; source organism: Choclo virus): ≥ 20 µM

Sequence: LFPELECFF
Kd (HLA-B*51:01; [29]): ≥ 20 µM
Kd (HLA-A*69:01 [3]; [29]): ≥ 20 µM
Kd (HLA-A*26:01; [29]): ≥ 20 µM
Kd (HLA-B*18:01 [7]; [29]): ≥ 20 µM
Kd (HLA-B*27:03; [29]): ≥ 20 µM
Kd (HLA-B*57:01 [9]; [29]): ≥ 20 µM
Kd (HLA-B*39:01; [29]): ≥ 20 µM
Kd (HLA-A*24:03 [10]; [29]): 0.0008 µM
Kd (HLA-B*15:17; [29]): ≥ 20 µM
Kd (HLA-B*46:01 [11]; [29]): ≥ 20 µM
Kd (HLA-A*02:01 [13]; [29]): ≥ 20 µM
Kd (HLA-A*03:01 [19]; [30]): ≥ 20 µM
Kd (HLA-A*02:12 [14]; [30]): ≥ 20 µM
Kd (HLA-A*23:01 [15]; [30]): ≥ 20 µM
Kd (HLA-A*02:03; [30]): ≥ 20 µM
Kd (HLA-A*29:02 [20]): ≥ 20 µM
Kd (HLA-A*02:16; [30]): ≥ 20 µM
Kd (HLA-A*02:19 [16]; [30]): ≥ 20 µM
Kd (HLA-A*02:11 [18]; [30]): ≥ 20 µM
Kd (HLA-A*68:02; [30]): ≥ 20 µM

Sequence: VRGGMVAPL
Kd (HLA-A*01:01; [31]): ≥ 20 µM
Kd (HLA-B*15:01 [21]): ≥ 20 µM
Kd (HLA-A*03:01 [19]; [31]): ≥ 20 µM
Kd (HLA-A*69:01 [22]): ≥ 20 µM
Kd (HLA-B*15:09): ≥ 20 µM
Kd (HLA-A*11:01): ≥ 20 µM
Kd (HLA-A*31:01): ≥ 20 µM
Kd (HLA-B*44:02): ≥ 20 µM
Kd (HLA-B*40:01): ≥ 20 µM
Kd (HLA-B*18:01 [23]): ≥ 20 µM
Kd (HLA-B*58:01): ≥ 20 µM
Kd (HLA-B*57:01 [24]): ≥ 20 µM
Kd (HLA-B*46:01 [25]): ≥ 20 µM
Kd (HLA-B*48:01): ≥ 20 µM
Kd (HLA-B*27:05): ≥ 20 µM
Kd (HLA-A*02:01 [26]): ≥ 20 µM
